Entries after “also recorded” stand apart in the source; their conditions may differ.
Key:
Jurkat cells [1] = test: Flow cytometry binding of C5 VL sdAb to Jurkat cells; assay type: cell-based, human
Description: (§1) FIG. 8. Binding and internalization characterization of C5 VL sdAb. C5 binding and internalization properties against CLBL-1 cells were evaluated by cytometry and immunofluorescence. A) For flow cytometry analysis, 1×10^6 of CLBL-1 cells were incubated with Live/Dead reagents for 30 minutes. Then, 3 μM of C5 were incubated with the cells for different timepoints at 37° C. After, cells were washed, fixed, permeabilized, and incubated for 30 min with anti-HA antibody, washed twice and incubated with anti-rat Alexa Fluor-488. […] B) By contrast, no binding of C5 was detected with Jurkat cells. C) To confirm the binding of C5 to the CLBL-1 verified by flow cytometry, we evaluated its distribution on the cells by immunofluorescence assay. […] Representative microphotographs with C5 (green) and DAPI stained-nuclei (blue) are shown.
(§2) The C5 VL sdAb binding and cellular internalization properties towards CLBL-1 cells were studied by cytometry analysis and immunofluorescence. […] Live/dead reagent was used to exclude dead cells and the background noise was also evaluated in the control with the secondary antibody (data not shown). To better characterize the binding of the C5 to the CLBL-1 cells, we further evaluated the internalization of the C5 sdAb on the cells using an immunofluorescence assay. […]

Jurkat cells [2] = test: Immunofluorescence of C5 with Jurkat cells; assay type: cell-based, human
Jurkat cells [3] = test: WST-1 cell viability assay on Jurkat cells; assay type: cell-based, human; conditions: 48 h treatment
Description: (§3) FIG. 11—Cytotoxic effects of C5-DAB-SN-38. To determine the effect of C5-DAB-SN-38 on CLBL-1 and Jurkat cells, a cell viability assay was performed using the WST-1 reagent. 6×10^4 cells were seeded and treated with increasing amounts of compound. After 48 h treatment, cell viability was assessed. […] B) On the other hand, ADC had no effect on Jurkat cells, proving the specificity of the ADC. C5 was used as control. Best-fit EC50 values of each formulation were calculated using GraphPad Prism software (version 9.2.0, San Diego, CA, USA) using the log (inhibitor) vs response (variable slope) function. D) Effects of C5-DAB-SN-38 on DNA TopoI activity. To evaluate the effects of C5-DAB-SN-38 on DNA Topo I, we evaluated its activity using the Human Topoisomerase I Assay Kit. […]
(§4) To determine the effect of VL-DAB-SN-38 in CLBL-1 and Jurkat cell proliferation, a cell viability assay was performed using the Cell Proliferation Reagent WST-1 (Roche, Basel, Switzerland). […] After 48 h treatment, cell viability was assessed using WST-1, following the manufacturer's instructions. Absorbance at 450 nm was measured using the iMark microplate Reader (Bio-Rad). […] Best-fit EC50 values of each formulation were calculated using GraphPad Prism software (version 8.0, San Diego, CA, USA) using the log (inhibitor)) vs response (variable slope) function.

CLBL-1 cells [4] = test: WST-1 cell viability assay on CLBL-1 cells; assay type: cell-based, canine; conditions: 48 h treatment
Description: as §3, §4

CLBL-1 cells [5] = test: Flow cytometry binding of C5 VL sdAb to CLBL-1 cells; assay type: cell-based, canine; conditions: 3 μM C5, 37° C., different timepoints
Description: as §1
To evaluate the binding of the VL C5 to the CLBL-1 cells, a FACS analysis was performed. […]
as §2

Human Topoisomerase I = molecular target: T1, Human Topoisomerase I (Homo sapiens, UniProt P11387); test: DNA Topo I activity assay (Human Topoisomerase I Assay Kit); assay type: biochemical; conditions: 10 U Topo I, supercoiled DNA, agarose gel
T1 construct: purchased Topogen
T1 sequence (P11387 1-765): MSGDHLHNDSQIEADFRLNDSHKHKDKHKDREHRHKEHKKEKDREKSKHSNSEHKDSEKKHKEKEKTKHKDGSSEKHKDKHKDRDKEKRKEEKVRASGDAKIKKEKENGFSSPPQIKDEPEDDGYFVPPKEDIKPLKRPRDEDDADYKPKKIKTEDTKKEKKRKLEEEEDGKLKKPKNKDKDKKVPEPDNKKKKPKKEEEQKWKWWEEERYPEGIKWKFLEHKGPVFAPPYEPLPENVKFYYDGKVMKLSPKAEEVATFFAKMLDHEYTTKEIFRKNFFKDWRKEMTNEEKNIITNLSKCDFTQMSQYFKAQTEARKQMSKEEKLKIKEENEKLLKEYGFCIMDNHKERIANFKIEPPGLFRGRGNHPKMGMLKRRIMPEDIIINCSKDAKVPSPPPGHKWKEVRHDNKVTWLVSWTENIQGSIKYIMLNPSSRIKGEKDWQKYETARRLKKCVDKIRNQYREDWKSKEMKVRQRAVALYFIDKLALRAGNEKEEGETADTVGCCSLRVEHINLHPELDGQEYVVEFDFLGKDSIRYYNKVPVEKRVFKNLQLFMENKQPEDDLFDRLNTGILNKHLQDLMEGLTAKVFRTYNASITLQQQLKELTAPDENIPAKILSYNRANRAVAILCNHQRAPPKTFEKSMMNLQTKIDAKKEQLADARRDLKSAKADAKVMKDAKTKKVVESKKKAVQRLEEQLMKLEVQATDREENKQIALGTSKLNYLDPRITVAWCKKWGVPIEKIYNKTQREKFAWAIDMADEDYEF
Description: FIG. 11—Cytotoxic effects of C5-DAB-SN-38. To determine the effect of C5-DAB-SN-38 on CLBL-1 and Jurkat cells, a cell viability assay was performed using the WST-1 reagent. 6×10^4 cells were seeded and treated with increasing amounts of compound. After 48 h treatment, cell viability was assessed. […] B) On the other hand, ADC had no effect on Jurkat cells, proving the specificity of the ADC. C5 was used as control. Best-fit EC50 values of each formulation were calculated using GraphPad Prism software (version 9.2.0, San Diego, CA, USA) using the log (inhibitor) vs response (variable slope) function. D) Effects of C5-DAB-SN-38 on DNA TopoI activity. To evaluate the effects of C5-DAB-SN-38 on DNA Topo I, we evaluated its activity using the Human Topoisomerase I Assay Kit. After incubation of C5-DAB-SN-38 with 1× reaction buffer and 10 U of Topo I for 1 h at 37° C., the supercoiled DNA was added. To stop the reaction, stop loading buffer was added. DNA TopoI activity was visualized by 1% agarose gel electrophoresis […] with ethidium bromide. Relaxed DNA indicated TopoI activity while supercoiled DNA indicated an inhibition. […] Relaxed DNA and supercoiled DNA were used as positive/negative controls. C5 and SN-38 were also used as controls.
Topo I activity on VL-DAB-SN38 was determined using the Human Topoisomerase I Assay Kit (Topogen, CO, USA) according to the manufacturer's instructions. […]

B1: C5: rabbit derived anti-cNHL VL sdAb clone, SEQ. ID. 3; ^99mTc radiolabelled for biodistribution (antibody, listed as Oryctolagus cuniculus, V domains shown)
VL: ELDLTQTPSPVSASVGGTATINCQASQSVYNNYWWAWYQQRPGHPPKLLIYETSKLASGVPSRFKGSGSGTQFTLTIIDVQCDDAATYVCAGGYGTVIDNAFGGGTELEIL
modifications: 99mTc(CO)3 radiolabel
notes: ID; ^99mTc radiolabelled for biodistribution
binding to Jurkat cells (flow cytometry) (Jurkat cells [1]): no binding interaction | fluorescence with Jurkat cells (immunofluorescence) (Jurkat cells [2]): no detectable fluorescence | effect on Jurkat cell viability/proliferation (Jurkat cells [3]): does not affect cell proliferation | effect on CLBL-1 (cNHL) cell viability/proliferation (CLBL-1 cells [4]): does not affect cell proliferation | binding to CLBL-1 cells (flow cytometry) (CLBL-1 cells [5]): specifically binds; also recorded: demonstrated to bind | binding to CLBL-1 cells (flow cytometry) (CLBL-1 cells [5]; listed as VL C5): shown to bind to the cells, increasing its interaction with time | effect on DNA Topo I activity (Human Topoisomerase I): not able to alter enzyme activity

Reference: patent US20240245800A1, “HIGHLY SPECIFIC RABBIT SINGLE -DOMAIN ANTIBODIES FOR DRUG DELIVERY IN IMMUNOTHERAPY APPLICATIONS” (TECHNOPHAGE, INVESTIGAÇÃO E DESENVOLVIMENTO EM …, priority 2021, published 2024)
